The Human Domainome abundance scans (Beltran et al. 2025)

B1: Metastasis-associated protein MTA3, residues 265 to 317; numbered along this chain, Q9BTC8 (parent)
chain: RDEMEEWSASEASLFEEALEKYGKDFNDIRQDFLPWKSLTSIIEYYYMWKTTD

Variants of: B1
Assay: abundance fitness (aPCA) (normalised: wild type 0, dead -1); higher = more abundant; growth selection in yeast, the domain comes from the species named
Conditions: Homo sapiens

Abundance fitness of substitutions, site by site:
E6: D -0.443, H 0.415, T -0.267, G -0.302, A 0.228, M 0.08, P -0.384, S -0.289, W -0.862, F -0.159, L -0.757, V 0.443, K 0.096, R -0.226
S10: N -0.005, I -0.462, F -0.216, T -0.091, Q -0.252, R -0.156, G -0.275, E -0.012, L -0.038, Y -0.158, A -0.154, M -0.152, H -0.139, W 0.031, K 0.219, P -0.743
S8: I -0.518, F -0.935, G -0.571, C -0.9, L -0.889, K -0.696, T 0.018, D -0.587, P -0.884, W -0.303, R -0.93, A -0.715, V -0.949, Q -0.749, Y 0.086, M -0.771, H -0.696
S13: E 0.158, G -0.015, I -0.527, D -0.326, H -0.242, C -0.134, K 0.502, F -0.436
E3: N 0.993, S 0.173, R -0.147, Q -0.357, T 0.741, L 0.135, M 0.132, P -0.466, V -0.151, W -0.873, Y 0.938
E5: Q -0.347, K -0.031, I -0.196, R -0.341, L -0.423, V -0.719, D -0.341, T -0.697, C -0.341, Y -0.042, S -0.107, N -0.09, A 0.173, H -0.636, M -0.209, W -0.639
M4: V -0.422, T -0.481, W -0.666, I -0.211, R -0.039, C -0.307, Q -0.885, E -0.351, S -0.273, G -0.947, H 0.156, Y -0.797, D -0.554, K -0.647
A12: R 0.22, Q 0.215, W -0.816, L -0.473, V 0.076, P -0.805, I -0.117, E -0.471, Y -0.768, S -0.436, N -0.15, C -0.273, M 0.068, D -0.875, K 0.358, T -0.238, H -0.041, F -0.941, G -0.618
E11: G -0.68, H -0.175, D 0.386, S -0.883, A -0.623, F -0.87, P -1.04, I -1.1, L -0.713, T -0.567, C -0.818, N -0.91, M 0.052, W -0.78, R -0.92, V -0.7, Q -0.811, Y -0.788, K -0.562
A9: K -0.505, R -0.356, N -0.677, S -0.331, V -0.359, G -0.714, F -0.726, L -0.5, M -0.909, W -0.527, C -0.564, T -0.332, Y -0.916, E -0.042, P -0.29, I -0.335
W7: R -0.715, Q -1.03, G -0.427, A -0.51, T -0.884, K -0.549, M -1, C -0.952, L -0.71, D -0.814, Y -0.496, H -0.909, V -0.979, N -0.697, E -0.925, F -0.681, S -0.777
